Numbering of substitutions follows the chain as printed.
T1: BC2T R3G (human)
T1 construct: position 3 library (BC2TR3X), row G
T1 peptide: Ac-PDGKAAVSHWQQ-NH2

T2: BC2T P1M (human)
T2 construct: position 1 library, row M
T2 peptide: Ac-MDRKAAVSHWQQ-NH2

T3: BC2T R3M (human)
T3 construct: position 3 library (BC2TR3X), row M
T3 peptide: Ac-PDMKAAVSHWQQ-NH2

T4: BC2T A5G (human)
T4 construct: position 5 library, row G
T4 peptide: Ac-PDRKGAVSHWQQ-NH2

T5: BC2T K4M (human)
T5 construct: position 4 library, row M
T5 peptide: Ac-PDRMAAVSHWQQ-NH2

T6: BC2T D2A (human)
T6 construct: position 2 library, row A
T6 peptide: Ac-PARKAAVSHWQQ-NH2

T7: BC2T V7G (human)
T7 construct: position 7 library, row G
T7 peptide: Ac-PDRKAAGSHWQQ-NH2

T8: BC2T A5V (human)
T8 construct: position 5 library, row V
T8 peptide: Ac-PDRKVAVSHWQQ-NH2

T9: BC2T P1G (human)
T9 construct: position 1 library, row G
T9 peptide: Ac-GDRKAAVSHWQQ-NH2

T10: BC2T A6G (human)
T10 construct: position 6 library (BC2TA6X), row G
T10 peptide: Ac-PDRKAGVSHWQQ-NH2

T11: BC2T D2V (human)
T11 construct: position 2 library, row V
T11 peptide: Ac-PVRKAAVSHWQQ-NH2

T12: BC2T D2M (human)
T12 construct: position 2 library, row M
T12 peptide: Ac-PMRKAAVSHWQQ-NH2

T13: BC2T K4G (human)
T13 construct: position 4 library, row G
T13 peptide: Ac-PDRGAAVSHWQQ-NH2

T14: BC2T A6V (human)
T14 construct: position 6 library (BC2TA6X), row V
T14 peptide: Ac-PDRKAVVSHWQQ-NH2

B1: BC2 nanobody (BC2-Nb) (VHH)
VHH: QVQLVESGGGLVQPGGSLTLSCTASGFTLDHYDIGWFRQAPGKEREGVSCINNSDDDTYYADSVKGRFTIFMDNAKDTVYLQMNSLKPEDTAIYYCAEARGCKRGRYEYDFWGQGTQVTVSS
notes: immobilised on agarose/sepharose beads in this assay; also called BC2 nanotrap (immobilised form); not shown: C-terminal 6xHis-tag added by pHEN6 vector
B2: BC2-NbR106E (VHH)
VHH: B1 VHH with R106E
notes: immobilised on beads in this assay; not shown: C-terminal 6xHis-tag added by pHEN6 vector
B3: BC2-NbR106S (VHH)
VHH: B1 VHH with R106S
notes: as for B2

biological target: T15, BC2T R3(I/L2); assay: library pulldown, LC-MS of supernatant; ratio vs GFP-Nb control (0=captured, 1=not captured)
T15 construct: position 3 library (BC2TR3X), row I/L2
Excerpt: (§1) In total, 12 different BC2T libraries displaying all 20 proteinogenic amino acids in one single position of the peptide were used in immunoprecipitation experiments. […] The direct comparison with the GFP-Nb made it possible to determine the quantitative degree of peptide capture without the need of labeled standards. […] The more peptide was captured the more the value approximates 0. It was not possible to discriminate between isoleucine (I) and leucine (L) peptide versions since these peptides are isobaric.
(§2) To investigate the binding specificity of the BC2T and derived mutants peptide libraries for each amino acid position of the sequence […] (SEQ ID NO:4) were synthesized with acetyl and amide groups located at the N-termini or C-termini respectively (Intavis). […] Incubations were performed in 300 μl PBS/0.01% CHAPS for 1 h on a HulaMixer (Life Technologies). Subsequent to a centrifugation step 10 μl supernatant were analyzed in a LC-MS procedure. Peptides were separated using an UltiMate3000 RSLCnano System (Thermo Scientific), composed of a C18 PepMap100μ-Precolumn (300 μm×5 mm; particle size: 5 μm; pore size: 100 Å—Thermo Scientific) and a C18 analytical column (Acclaim Rapid Separation LC (RSLC) Column: 150 mm×5 mm; particle size: 2.2 μm; pore size: 100 Å—Thermo Scientific). A step gradient was applied starting at 8% and ending after 20 min at 30% eluent B (80% acetonitrile, 20% H₂O, 0.1% formic acid).

ratio | Binder
0.5 | B1
0.9 | B2
0.9 | B3

biological target: T16, BC2T P1(I/L1); assay: as above
T16 construct: position 1 library, row I/L1
Excerpt: as §1, §2

ratio | Binder
0.4 | B1
0.6 | B2
0.7 | B3

Biological target: T1, BC2T R3G
Assay: as above
Excerpt: as §1, §2

ratio | Binder
0.9 | B1
1 | B2
1 | B3

Biological target: T2, BC2T P1M
Assay: as above
Excerpt: as §1, §2

ratio | Binder
0.2 | B1
0.4 | B2
0.5 | B3

Biological target: T3, BC2T R3M
Assay: as above
Excerpt: as §1, §2

ratio | Binder
0.7 | B1
0.9 | B2
0.9 | B3

Biological target: T4, BC2T A5G
Assay: as above
Excerpt: as §1, §2

ratio | Binder
0.3 | B1
0.4 | B2
0.5 | B3

Biological target: T5, BC2T K4M
Assay: as above
Excerpt: as §1, §2

ratio | Binder
0.1 | B1
0.3 | B2
0.5 | B3

Biological target: T6, BC2T D2A
Assay: as above
Excerpt: as §1, §2

ratio | Binder
0.2 | B1
0.2 | B2
0.4 | B3

Biological target: T7, BC2T V7G
Assay: as above
Excerpt: as §1, §2

ratio | Binder
0.7 | B1
0.7 | B2
0.8 | B3

biological target: T17, BC2T K4(I/L1); assay: as above
T17 construct: position 4 library, row I/L1
Excerpt: as §1, §2

ratio | Binder
0.1 | B1
0.3 | B2
0.4 | B3

Biological target: T8, BC2T A5V
Assay: as above
Excerpt: as §1, §2

ratio | Binder
0.1 | B1
0.1 | B2
0.2 | B3

biological target: T18, BC2T R3(I/L1); assay: as above
T18 construct: position 3 library (BC2TR3X), row I/L1
Excerpt: as §1, §2

ratio | Binder
0.5 | B1
0.9 | B2
0.9 | B3

Biological target: T9, BC2T P1G
Assay: as above
Excerpt: as §1, §2

ratio | Binder
0.4 | B1
0.5 | B2
0.6 | B3

biological target: T19, BC2T K4(I/L2); assay: as above
T19 construct: position 4 library, row I/L2
Excerpt: as §1, §2

ratio | Binder
0.2 | B1
0.5 | B2
0.6 | B3

Biological target: T10, BC2T A6G
Assay: as above
Excerpt: as §1, §2

ratio | Binder
0.7 | B1
0.8 | B2
0.9 | B3

biological target: T20, BC2T A6(I/L1); assay: as above
T20 construct: position 6 library (BC2TA6X), row I/L1
Excerpt: as §1, §2

ratio | Binder
0.7 | B1
0.7 | B2
0.8 | B3

Biological target: T11, BC2T D2V
Assay: as above
Excerpt: as §1, §2

ratio | Binder
0.1 | B1
0.1 | B2
0.2 | B3

Biological target: T12, BC2T D2M
Assay: as above
Excerpt: as §1, §2

ratio | Binder
0.1 | B1
0.1 | B2
0.2 | B3

biological target: T21, BC2T A5(I/L1); assay: as above
T21 construct: position 5 library, row I/L1
Excerpt: as §1, §2

ratio | Binder
0.1 | B1
0.1 | B2
0.2 | B3

Biological target: T13, BC2T K4G
Assay: as above
Excerpt: as §1, §2

ratio | Binder
0.6 | B1
0.9 | B2
0.9 | B3

biological target: T22, BC2T V7(I/L1); assay: as above
T22 construct: position 7 library, row I/L1
Excerpt: as §1, §2

ratio | Binder
0.1 | B1
0.1 | B2
0.3 | B3

Biological target: T14, BC2T A6V
Assay: as above
Excerpt: as §1, §2

ratio | Binder
0.3 | B1
0.3 | B2
0.6 | B3

biological target: T23, BC2T P1(I/L2); assay: as above
T23 construct: position 1 library, row I/L2
Excerpt: as §1, §2

ratio | Binder
0.3 | B1
0.5 | B2
0.6 | B3

Source: US20170137467A1 (CHROMOTEK, published 2017)
